Test system: control human primary myoblasts
Test: Expression microarray of primary myoblasts transduced with lentivirus carrying DUX4-fl, DUX4-s or GFP
Procedure: Primary human myoblasts were collected and cultured as previously described (Snider et al., 2010). Primary myoblasts were maintained at or below 70% confluency for proliferation. For differentiation, cells were allowed to reach 95-100% confluency in growth medium. Once confluency was reached, the cells were changed to differentiation medium (F10 media supplemented with 1% horse serum, 10 μg/mL insulin, and 10 μg/mL transferrin, penicillin/streptomycin) and maintained for 4 days. Human RD cells were grown in DMEM in 10% bovine calf serum (Hyclone) and penicillin/streptomycin. The primary myoblasts were transduced with lentivirus carrying DUX-fl, DUX4- or GFP (MOI=15).
Expression microarrays were performed on the transduced cells at 24 hours after transduction as follows. […] Samples were analyzed by Illumina Human Whole Genome microarrays. Probe intensities were corrected, normalized, and summarized by the Lumi package of Bioconductor (Du et al., 2008). Differentially expressed genes were identified by the LIMMA package of Bioconductor (Wettenhall and Smyth, 2004). Gene set enrichment analysis (GSEA) was performed using the Bioconductor GOstats package (Falcon and Gentleman, 2007).

[1] = 2-fold change and FDR<0.01 vs lenti-GFP, 24 hours after transduction
[2] = 3-fold criteria (>1.584 log2-fold change and FDR<0.01)

B1: DUX4-s: short splice form of DUX4 (SEQ ID NO:112), keeps the double-homeobox domains, lacks the C-terminal activation domain (protein, listed as Homo sapiens)
chain: MALPTPSDSTLPAEARGRGRRRRLVWTPSQSEALRACFERNPYPGIATRERLAQAIGIPEPRVQIWFQNERSRQLRQHRRESRPWPGRRGPPEGRRKRTAVTGSQTALLLRAFEKDRFPGIAAREELARETGLPESRIQIWFQNRRARHPGQGGRAPAQV
number of genes with decreased expression [1]: 45 genes
number of genes with increased expression [1]: 159 genes
number of genes decreased [2]: one
number of genes increased [2]: 37 genes
BQ437417 (no symbol given) expression fc (Refseq BQ437417, cultured human skeletal muscle): −0.126
fc of ACVRL1 (expression array) (Refseq NM_000020.1): 0.06199
fc of C3 (expression array) (Refseq NM_000064.1): 0.2479
CA2 expression fc (Refseq NM_000067.1): 0.1046
fc of COL1A1 (expression array) (Refseq NM_000088.3): −1.257
CST3 fc (Refseq NM_000099.2): 0.1574
ENG fc (Refseq NM_000118.1): 0.4927
fc of GAMT (expression array) (Refseq NM_000156.4): −0.3529
GBE1 fc (Refseq NM_000158.2): 0.4818
fc of IDS (expression array) (Refseq NM_000202.3): 0.6655
KCNA1 expression fc (Refseq NM_000217.2): 0.02842
SGCG expression fc (Refseq NM_000231.1): 0.125
NP expression fc (Refseq NM_000270.1): 0.2279
fc of PTEN (expression array) (Refseq NM_000314.4): −0.3029
SLC3A1 expression fc (Refseq NM_000341.2): 0.003792
SOX9 expression fc (Refseq NM_000346.2): −0.3086
fc of PAFAH1B1 (expression array) (Refseq NM_000430.2): −1.237
HBA2 expression fc (Refseq NM_000517.3): 0.09333
fc of HBB (expression array) (Refseq NM_000518.4): 1.196
HBA1 expression fc (Refseq NM_000558.3): 0.08066
IL8 expression fc (Refseq NM_000584.2, cultured human skeletal muscle): 1.186
fc of IL15 (expression array) (Refseq NM_000585.2): −0.1029
TAP1 expression fc (Refseq NM_000593.5, cultured human skeletal muscle): 0.6996
fc of IL6 (expression array) (Refseq NM_000600.1): 1.198
IL10RB fc (Refseq NM_000628.3): −0.05056
fc of ALDH2 (expression array) (Refseq NM_000690.2): 0.2053
fc of ANXA1 (expression array) (Refseq NM_000700.1): 0.08537
fc of CYP2J2 (expression array) (Refseq NM_000775.2): 1.127
fc of GAS6 (expression array) (Refseq NM_000820.1): −0.3187
fc of MME (expression array) (Refseq NM_000902.3): −0.184
P4HB fc (Refseq NM_000918.3): −0.1927
PTGFR fc (Refseq NM_000959.3): 0.1496
TOP2A fc (Refseq NM_001067.2): −0.6065
TYMS fc (Refseq NM_001071.1): −0.09199
VCAM1 expression fc (Refseq NM_001078.2, cultured human skeletal muscle): 0.6349
ALOX15B fc (Refseq NM_001141.2): 0.4518
ANPEP expression fc (Refseq NM_001150.1, cultured human skeletal muscle): 0.3635
ART3 expression fc (Refseq NM_001179.3): 0.09073
CA12 expression fc (Refseq NM_001218.3, cultured human skeletal muscle): 0.954
fc of CASP4 (expression array) (Refseq NM_001225.3): 0.6908
CD68 fc (Refseq NM_001251.1): 1.175
CLIC1 fc (Refseq NM_001288.4): 0.3089
CXADR expression fc (Refseq NM_001338.3): −0.07005
DPYSL2 fc (Refseq NM_001386.4): 0.2285
EMP3 fc (Refseq NM_001425.1): −0.2096
FLT3LG fc (Refseq NM_001459.2): 0.3873
CXCL1 expression fc (Refseq NM_001511.1, cultured human skeletal muscle): 0.2028
fc of HAS1 (expression array) (Refseq NM_001523.1): 0.217
PRMT2 fc (Refseq NM_001535.2): 0.07412
NDST1 fc (Refseq NM_001543.3): −0.6912
IFIT2 expression fc (Refseq NM_001547.4, cultured human skeletal muscle): 2.07
IFIT1 expression fc (Refseq NM_001548.3, cultured human skeletal muscle): 0.7206
IFIT3 expression fc (Refseq NM_001549.2, cultured human skeletal muscle): 1.806
IFRD1 expression fc (Refseq NM_001550.2): −0.192
IGFBP4 expression fc (Refseq NM_001552.2, cultured human skeletal muscle): 0.4048
fc of CXCL10 (expression array) (Refseq NM_001565.2): 3.235
AARS fc (Refseq NM_001605.2): 0.2776
ACP2 fc (Refseq NM_001610.1): 0.2225
TRIM23 expression fc (Refseq NM_001656.3): 0.6303
ARSD fc (Refseq NM_001669.2): −0.2052
fc of AUH (expression array) (Refseq NM_001698.1): 0.1604
CFB expression fc (Refseq NM_001710.4, cultured human skeletal muscle): 0.6337
C1R expression fc (Refseq NM_001733.4, cultured human skeletal muscle): 0.4933
CAV1 fc (Refseq NM_001753.3): −0.1911
fc of RUNX1 (expression array) (Refseq NM_001754.3): −1.047
fc of CCND2 (expression array) (Refseq NM_001759.2): −0.5282
CD9 expression fc (Refseq NM_001769.2): −0.004788
CDH11 fc (Refseq NM_001797.2): 0.2419
HBEGF expression fc (Refseq NM_001945.1): −0.07673
ECGF1 expression fc (Refseq NM_001953.2, cultured human skeletal muscle): 0.6156
EGR1 expression fc (Refseq NM_001964.2): 0.02651
ETV6 fc (Refseq NM_001987.4): −0.05533
EYA3 expression fc (Refseq NM_001990.2): −0.01672
fc of ACSL1 (expression array) (Refseq NM_001995.2): 0.147
FES fc (Refseq NM_002005.2): −0.3314
FTH1 expression fc (Refseq NM_002032.2, cultured human skeletal muscle): −0.4183
GTF2F1 expression fc (Refseq NM_002096.1): 0.29
HLA-A fc (Refseq NM_002116.5): 0.5577
HMOX1 expression fc (Refseq NM_002133.1, cultured human skeletal muscle): 0.9838
HOXB2 expression fc (Refseq NM_002145.3): −0.04069
HSPA6 expression fc (Refseq NM_002155.3): 0.128
ID2 expression fc (Refseq NM_002166.4): 0.2756
fc of IFNB1 (expression array) (Refseq NM_002176.2): 1.044
INSM1 expression fc (Refseq NM_002196.2): 0.2306
IRF1 expression fc (Refseq NM_002198.1, cultured human skeletal muscle): 0.3563
ISG20 expression fc (Refseq NM_002201.4, cultured human skeletal muscle): 2.357
fc of ITGA3 (expression array) (Refseq NM_002204.1): 0.1268
fc of JUNB (expression array) (Refseq NM_002229.2): 0.5152
JUP expression fc (Refseq NM_002230.1): −0.1057
KPNA2 expression fc (Refseq NM_002266.2): −0.5075
fc of LAMC1 (expression array) (Refseq NM_002293.2): −1.061
fc of LSS (expression array) (Refseq NM_002340.3): −0.007301
LTBR fc (Refseq NM_002342.1): 0.4061
LUM fc (Refseq NM_002345.3): 0.3869
LY6E expression fc (Refseq NM_002346.1, cultured human skeletal muscle): 0.2484
fc of MDM2 (expression array) (Refseq NM_002392.2): 1.078
MX1 expression fc (Refseq NM_002462.2, cultured human skeletal muscle): 0.2624
MX2 expression fc (Refseq NM_002463.1, cultured human skeletal muscle): 0.9576
fc of MYF6 (expression array) (Refseq NM_002469.1): −0.0236
MYOD1 fc (Refseq NM_002478.4): −0.462
NFYA expression fc (Refseq NM_002505.3): 0.9153
OAS2 expression fc (Refseq NM_002535.2, cultured human skeletal muscle): 0.4553
ODC1 expression fc (Refseq NM_002539.1): −0.2008
PDE4B fc (Refseq NM_002600.3): 0.6757
PFKP fc (Refseq NM_002627.3): 0.7759
PIM1 expression fc (Refseq NM_002648.2): −0.6756
EXOSC10 expression fc (Refseq NM_002685.2): 0.2771
PNN expression fc (Refseq NM_002687.3): 0.04413
PRKD1 fc (Refseq NM_002742.2): −0.6085
PSMB9 expression fc (Refseq NM_002800.4, cultured human skeletal muscle): 0.9451
PTX3 expression fc (Refseq NM_002852.2, cultured human skeletal muscle): 0.9442
PYGB expression fc (Refseq NM_002862.3, cultured human skeletal muscle): −0.118
fc of RAB13 (expression array) (Refseq NM_002870.2): 0.3496
fc of RBMS1 (expression array) (Refseq NM_002897.3): 1.104
fc of RBMS2 (expression array) (Refseq NM_002898.2): 1.448
RXRA fc (Refseq NM_002957.3): −0.3202
CCL2 expression fc (Refseq NM_002982.3, cultured human skeletal muscle): 0.4355
CCL5 expression fc (Refseq NM_002985.2, cultured human skeletal muscle): 1.889
CXCL6 expression fc (Refseq NM_002993.2, cultured human skeletal muscle): 0.1728
CXCL5 expression fc (Refseq NM_002994.3, cultured human skeletal muscle): 0.824
SLC2A5 expression fc (Refseq NM_003039.1, cultured human skeletal muscle): 0.8141
SLC22A4 fc (Refseq NM_003059.2): 0.3817
SNAI2 expression fc (Refseq NM_003068.3, cultured human skeletal muscle): 0.2027
fc of SMARCD3 (expression array) (Refseq NM_003078.3): −0.3421
SNRNP70 expression fc (Refseq NM_003089.4): 0.01776
SOX4 expression fc (Refseq NM_003107.2): −0.2174
SPG7 fc (Refseq NM_003119.2): −0.2796
SRP19 expression fc (Refseq NM_003135.1): 0.227
fc of STRN (expression array) (Refseq NM_003162.2): 1.092
THBS1 fc (Refseq NM_003246.2): −0.5659
UBA7 expression fc (Refseq NM_003335.2, cultured human skeletal muscle): 0.5729
fc of UGCG (expression array) (Refseq NM_003358.1): 1.447
WEE1 fc (Refseq NM_003390.2): 0.3325
WNT5A fc (Refseq NM_003392.3): −0.3993

Source: US20140242093A1, “METHODS AND COMPOSITIONS FOR MODULATING THE INNATE IMMUNE RESPONSE AND/OR MYOGENESIS IN A MAMMALIAN SUBJECT” (FRED HUTCHINSON CANCER RESEARCH CENTER, priority 2011, published 2014)
